Data as given in publication doi:10.1101/2022.08.24.505078, “Cyclic AMP competitively inhibits periplasmic phosphatases to coordinate nutritional growth with competence development of Haemophilus influenzae” (bioRxiv, 2022).

B1: tag-less AphAEc (AphA of E. coli after removal of the N-terminal His6-SUMO tag by Ulp1) (enzyme)
chain: SPSPLNPGTNVARLAEQAPIHWVSVAQIENSLAGRPPMAVGFDIDDTVLFSSPGFWRGKKTFSPESEDYLKNPVFWEKMNNGWDEFSIPKEVARQLIDMHVRRGDAIFFVTGRSPTKTETVSKTLADNFHIPATNMNPVIFAGDKPGQNTKSQWLQDKNIRIFYGDSDNDITAARDVGARGIRILRASNSTYKPLPQAGAFGEEVIVNSEY
notes: AphA, non-specific periplasmic acid phosphatase of E. coli; protein of around 25 kDa after cleavage; The linker between SUMO and AphA was removed by mutagenesis; also called cleaved tag-less AphAEc; source: E. coli, purified as His6-SUMO-AphAEc, tag cleaved off with His6-Ulp1, size exclusion chromatography; not shown: His6-SUMO, N-terminal, cleaved
B2: AphAEc-His6 (periplasmic acid phosphatase AphA of E. coli, signal peptide removed, C-terminal six-histidine tag) (enzyme, UniProt P0AE22 26-237, looked up)
chain: SSPSPLNPGTNVARLAEQAPIHWVSVAQIENSLAGRPPMAVGFDIDDTVLFSSPGFWRGKKTFSPESEDYLKNPVFWEKMNNGWDEFSIPKEVARQLIDMHVRRGDAIFFVTGRSPTKTETVSKTLADNFHIPATNMNPVIFAGDKPGQNTKSQWLQDKNIRIFYGDSDNDITAARDVGARGIRILRASNSTYKPLPQAGAFGEEVIVNSEY
notes: AphA, non-specific periplasmic acid phosphatase of E. coli, with the N-terminal signal peptide removed; also called AphA-His6; Ct His6 tagged AphAEc; source: E. coli, purified (Ni-NTA, size exclusion chromatography on Superdex 200 Increase); not shown: His6, C-terminal, kept
B3: His6-AphAEc (periplasmic acid phosphatase AphA of E. coli, signal peptide removed, N-terminal six-histidine tag) (enzyme, UniProt P0AE22 26-237, looked up)
chain: SSPSPLNPGTNVARLAEQAPIHWVSVAQIENSLAGRPPMAVGFDIDDTVLFSSPGFWRGKKTFSPESEDYLKNPVFWEKMNNGWDEFSIPKEVARQLIDMHVRRGDAIFFVTGRSPTKTETVSKTLADNFHIPATNMNPVIFAGDKPGQNTKSQWLQDKNIRIFYGDSDNDITAARDVGARGIRILRASNSTYKPLPQAGAFGEEVIVNSEY
notes: AphA, non-specific periplasmic acid phosphatase of E. coli, with the N-terminal signal peptide removed; also called Nt His6 tagged AphAEc; source: E. coli, purified (Ni-NTA, size exclusion chromatography on Superdex 200 Increase); not shown: His6, N-terminal, kept

Molecular target: the molecule itself
Assay: SEC; purified protein on a Superdex 200 Increase 10/300 GL column; size read against standard proteins

| Protein | stoichiometry N |
| --- | --- |
| B1 | 4 |
| B2 | 2 |
| B3 | 4 |
